This note sets out measurements from article PMC8794802.

The target of series [1] is T1, Pus7 D256A (Saccharomyces cerevisiae, UniProt Q08647 1-676, D256A).
T1 sequence: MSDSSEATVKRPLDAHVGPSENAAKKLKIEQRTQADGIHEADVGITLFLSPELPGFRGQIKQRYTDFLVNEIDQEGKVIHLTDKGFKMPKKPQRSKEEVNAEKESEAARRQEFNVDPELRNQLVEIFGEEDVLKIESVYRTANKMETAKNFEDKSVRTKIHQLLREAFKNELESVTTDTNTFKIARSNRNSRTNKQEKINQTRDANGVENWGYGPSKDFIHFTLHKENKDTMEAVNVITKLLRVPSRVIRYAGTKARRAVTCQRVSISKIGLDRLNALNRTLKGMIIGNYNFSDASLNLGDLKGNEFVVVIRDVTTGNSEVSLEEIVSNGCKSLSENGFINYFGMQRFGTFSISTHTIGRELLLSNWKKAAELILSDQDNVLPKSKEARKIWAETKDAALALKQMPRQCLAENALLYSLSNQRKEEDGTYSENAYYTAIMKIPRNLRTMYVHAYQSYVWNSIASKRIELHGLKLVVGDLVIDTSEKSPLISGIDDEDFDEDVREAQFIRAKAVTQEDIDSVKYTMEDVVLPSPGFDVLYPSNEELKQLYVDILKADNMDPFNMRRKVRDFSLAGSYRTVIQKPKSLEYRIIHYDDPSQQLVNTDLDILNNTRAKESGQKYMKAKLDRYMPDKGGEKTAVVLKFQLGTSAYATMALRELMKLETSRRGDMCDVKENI
In words: EMSA. In general terms: Mobility shift assays separate free from complexed probe on a gel.

Series [2] deals with T1, Pus7 D256A. Description: stopped-flow fluorescence.
For another series, the target named is T2, Pus7 D256A/F307A (Saccharomyces cerevisiae, UniProt Q08647 1-676, D256A;F307A).
T2 sequence: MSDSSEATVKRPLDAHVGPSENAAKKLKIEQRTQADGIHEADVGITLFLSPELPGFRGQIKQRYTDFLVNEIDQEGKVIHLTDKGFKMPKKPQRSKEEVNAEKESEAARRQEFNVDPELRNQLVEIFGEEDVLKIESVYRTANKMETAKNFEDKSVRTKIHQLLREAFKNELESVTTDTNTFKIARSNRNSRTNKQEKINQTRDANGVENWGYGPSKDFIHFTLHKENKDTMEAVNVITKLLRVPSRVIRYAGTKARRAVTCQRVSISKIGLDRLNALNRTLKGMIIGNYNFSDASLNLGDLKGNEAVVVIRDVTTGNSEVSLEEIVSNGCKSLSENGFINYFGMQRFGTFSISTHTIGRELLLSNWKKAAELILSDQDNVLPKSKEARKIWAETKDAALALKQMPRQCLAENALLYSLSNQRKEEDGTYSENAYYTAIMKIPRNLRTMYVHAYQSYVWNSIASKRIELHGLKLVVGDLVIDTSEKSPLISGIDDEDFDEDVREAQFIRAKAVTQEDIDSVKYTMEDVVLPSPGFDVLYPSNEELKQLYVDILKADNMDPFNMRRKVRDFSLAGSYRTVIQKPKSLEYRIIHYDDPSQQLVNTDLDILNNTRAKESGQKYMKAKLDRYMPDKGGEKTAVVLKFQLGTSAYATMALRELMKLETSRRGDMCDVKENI
Description: EMSA.

A further series deals with T3, Pus1 (Saccharomyces cerevisiae, UniProt Q12211 1-544).
T3 sequence: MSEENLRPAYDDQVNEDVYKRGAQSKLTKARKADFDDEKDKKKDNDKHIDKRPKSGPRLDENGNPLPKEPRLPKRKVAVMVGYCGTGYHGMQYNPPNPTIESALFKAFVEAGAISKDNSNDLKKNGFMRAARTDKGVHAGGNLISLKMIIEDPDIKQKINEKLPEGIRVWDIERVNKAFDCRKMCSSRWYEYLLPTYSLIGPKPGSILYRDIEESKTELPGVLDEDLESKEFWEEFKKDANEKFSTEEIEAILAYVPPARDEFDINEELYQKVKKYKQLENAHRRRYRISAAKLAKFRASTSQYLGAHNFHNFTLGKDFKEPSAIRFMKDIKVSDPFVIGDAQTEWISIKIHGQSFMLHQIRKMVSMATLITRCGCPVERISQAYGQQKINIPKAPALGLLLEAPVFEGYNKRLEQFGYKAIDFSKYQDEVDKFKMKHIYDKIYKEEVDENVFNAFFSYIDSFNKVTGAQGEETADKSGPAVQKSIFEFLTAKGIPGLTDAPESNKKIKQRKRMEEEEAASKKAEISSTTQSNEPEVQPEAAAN
Description: EMSA.

B1: CDC8 (cdc8-FL, 61 nt) (ssRNA)
RNA: GUCAAUCACGAUUGUAGACGUUACUAAUAAGGGCAUUCAGGAAGUUGAAGCGCUUAUUUGG
With B1, the Kd (as a rule, the equilibrium constant for the complex coming apart) in the series with Pus7 D256A [1] is 60 ± 15 nM; with Pus7 D256A [2], around 85 nM; with Pus7 D256A/F307A it was 340 ± 170 nM. Further, in the series with Pus1, the binding result was “binds”.
